# According to PMC10762164, “Lipid nanodisc scaffold and size alter the structure of a pentameric ligand-gated ion channel” (Nature Communications, 2024):
# How the values were obtained:
# [1] = target: the molecule itself; test: cryo-EM structure; single particle cryo-EM of ELIC or ELIC5 in SMA, saposin, spMSP1D1 or spNW15 nanodiscs with 2:1:1 POPC:POPE:POPG; 10 mM HEPES pH 7.5, 100 mM NaCl; with 50 mM propylamine or apo; C5 symmetry in 3D classification and refinement
# [2] = target: the molecule itself; test: cryo-EM structure
Protein,binding result [1],binding result [2]
"Erwinia ligand-gated ion channel (ELIC), wild type (natural protein, UniProt P0C7B7 1-321, looked up, Erwinia ligand-gated ion channel (ELIC), a pentameric ligand-gated ion channel, from plasmid pET-26-MBP-ELIC; Homopentamer; also called WT ELIC) APADNAADARPVDVSVSIFINKIYGVNTLEQTYKVDGYIVAQWTGKPRKTPGDKPLIVENTQIERWINNGLWVPALEFINVVGSPDTGNKRLMLFPDGRVIYNARFLGSFSNDMDFRLFPFDRQQFVLELEPFSYNNQQLRFSDIQVYTENIDNEEIDEWWIRKASTHISDIRYDHLSSVQPNQNEFSRITVRIDAVRNPSYYLWSFILPLGLIIAASWSVFWLESFSERLQTSFTLMLTVVAYAFYTSNILPRLPYTTVIDQMIIAGYGSIFAAILLIIFAHHRQAMGVEDDLLIQRCRLAFPLGFLAIGCVLVIRGITL",binds,
"ELIC5 (P254G/C300S/V261Y/G319F/I320F), non-desensitizing mutant of ELIC (natural protein) APADNAADARPVDVSVSIFINKIYGVNTLEQTYKVDGYIVAQWTGKPRKTPGDKPLIVENTQIERWINNGLWVPALEFINVVGSPDTGNKRLMLFPDGRVIYNARFLGSFSNDMDFRLFPFDRQQFVLELEPFSYNNQQLRFSDIQVYTENIDNEEIDEWWIRKASTHISDIRYDHLSSVQPNQNEFSRITVRIDAVRNPSYYLWSFILPLGLIIAASWSVFWLESFSERLQTSFTLMLTVVAYAFYTSNILGRLPYTTYIDQMIIAGYGSIFAAILLIIFAHHRQAMGVEDDLLIQRSRLAFPLGFLAIGCVLVIRFFTL",,binds
